Data from article PMC8501021, “Nuclear transporter Importin-13 plays a key role in the oxidative stress transcriptional response” (Nature Communications, 2021).

Key:
[1] = biological target: T1, GFP-SP1 (GFP fused to specificity protein 1) (UniProt P08047 1-785); test: co-IP; HeLa cells co-expressing GFP, GFP-KLF4 or GFP-SP1 with DSRED-IPO13; treated with or without 125 uM H2O2 for 1 h before lysis; lysates with or without GTPgammaS (1.7 mM, 20 min on ice); precipitated with GFP-Trap resin; Western blot with anti-GFP and anti-IPO13; conditions: partners not purified
T1 construct: Specificity protein 1 (SP1); plasmid from Jan-Jong Hung (National Cheng Kung University, Taiwan); Construct was a gift; also called GFP-tagged SP1; source: HeLa, transfected, in lysate
T1 sequence (P08047 whole entry, the tested form may be a part): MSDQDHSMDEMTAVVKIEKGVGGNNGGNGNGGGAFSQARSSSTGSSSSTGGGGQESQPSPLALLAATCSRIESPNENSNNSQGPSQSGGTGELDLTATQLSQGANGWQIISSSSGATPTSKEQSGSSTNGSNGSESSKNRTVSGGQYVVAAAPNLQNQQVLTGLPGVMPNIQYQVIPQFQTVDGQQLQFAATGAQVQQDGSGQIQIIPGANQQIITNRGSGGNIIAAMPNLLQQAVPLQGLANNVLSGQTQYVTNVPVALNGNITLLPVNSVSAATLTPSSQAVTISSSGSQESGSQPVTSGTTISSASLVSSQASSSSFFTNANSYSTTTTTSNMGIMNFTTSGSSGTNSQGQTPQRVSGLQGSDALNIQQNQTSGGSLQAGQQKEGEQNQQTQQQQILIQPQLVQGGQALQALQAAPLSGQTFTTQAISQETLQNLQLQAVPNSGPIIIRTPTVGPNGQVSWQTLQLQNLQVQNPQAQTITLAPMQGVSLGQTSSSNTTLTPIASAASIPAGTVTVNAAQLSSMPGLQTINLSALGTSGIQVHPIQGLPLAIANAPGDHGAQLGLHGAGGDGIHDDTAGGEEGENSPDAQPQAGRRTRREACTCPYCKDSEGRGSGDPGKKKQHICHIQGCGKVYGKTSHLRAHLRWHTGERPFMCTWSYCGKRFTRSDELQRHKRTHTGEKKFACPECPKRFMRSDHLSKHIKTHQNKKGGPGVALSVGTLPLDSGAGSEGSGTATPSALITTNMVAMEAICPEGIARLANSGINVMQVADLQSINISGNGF

[2] = biological target: T2, GFP-KLF4 (eGFP fused to full-length mouse Kruppel like factor 4) (mouse, UniProt Q60793 1-483); test: as above; conditions: partners not purified
T2 construct: Kruppel like factor 4 (KLF4), mouse, full length; inserted in-frame at BamHI and HindIII of pEGFP-C1, C-terminal to eGFP; also called GFP-tagged KLF4; source: HeLa, transfected (pEGFP-C1 construct), in lysate; not shown: eGFP, N-terminal, kept
T2 sequence (Q60793 whole entry, the tested form may be a part): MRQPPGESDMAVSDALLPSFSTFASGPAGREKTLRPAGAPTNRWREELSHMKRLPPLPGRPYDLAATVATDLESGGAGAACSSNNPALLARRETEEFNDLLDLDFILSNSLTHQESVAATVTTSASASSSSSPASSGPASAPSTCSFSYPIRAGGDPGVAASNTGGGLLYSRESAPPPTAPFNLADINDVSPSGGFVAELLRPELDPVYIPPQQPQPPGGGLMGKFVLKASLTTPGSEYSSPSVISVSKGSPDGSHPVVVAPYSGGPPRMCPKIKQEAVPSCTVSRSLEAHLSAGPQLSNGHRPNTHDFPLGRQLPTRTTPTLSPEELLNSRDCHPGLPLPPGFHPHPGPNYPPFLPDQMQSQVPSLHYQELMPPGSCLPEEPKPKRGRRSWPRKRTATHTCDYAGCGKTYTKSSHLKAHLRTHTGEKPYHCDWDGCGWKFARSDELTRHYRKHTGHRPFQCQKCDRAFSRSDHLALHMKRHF

fold increase in co-precipitation with GTPgammaS against no addition, H2O2 treated cells [1]: ~2 fold | fold increase in co-precipitation with GTPgammaS against no addition, H2O2 treated cells [2]: ~2 fold
B1: DSRED-IPO13 (Importin-13 fused to the DsRed2 fluorescent protein) (natural protein, UniProt O94829 1-963, looked up)
chain: MERREEQPGAAGAGAAPALDFTVENVEKALHQLYYDPNIENKNLAQKWLMQAQVSPQAWHFSWQLLQPDKVPEIQYFGASALHIKISRYWSDIPTDQYESLKAQLFTQITRFASGSKIVLTRLCVALASLALSMMPDAWPCAVADMVRLFQAEDSPVDGQGRCLALLELLTVLPEEFQTSRLPQYRKGLVRTSLAVECGAVFPLLEQLLQQPSSPSCVRQKVLKCFSSWVQLEVPLQDCEALIQAAFAALQDSELFDSSVEAIVNAISQPDAQRYVNTLLKLIPLVLGLQEQLRQAVQNGDMETSHGICRIAVALGENHSRALLDQVEHWQSFLALVNMIMFCTGIPGHYPVNETTSSLTLTFWYTLQDDILSFEAEKQAVYQQVYRPVYFQLVDVLLHKAQFPSDEEYGFWSSDEKEQFRIYRVDISDTLMYVYEMLGAELLSNLYDKLGRLLTSSEEPYSWQHTEALLYGFQSIAETIDVNYSDVVPGLIGLIPRISISNVQLADTVMFTIGALSEWLADHPVMINSVLPLVLHALGNPELSVSSVSTLKKICRECKYDLPPYAANIVAVSQDVLMKQIHKTSQCMWLMQALGFLLSALQVEEILKNLHSLISPYIQQLEKLAEEIPNPSNKLAIVHILGLLSNLFTTLDISHHEDDHEGPELRKLPVPQGPNPVVVVLQQVFQLIQKVLSKWLNDAQVVEAVCAIFEKSVKTLLDDFAPMVPQLCEMLGRMYSTIPQASALDLTRQLVHIFAHEPAHFPPIEALFLLVTSVTLTLFQQGPRDHPDIVDSFMQLLAQALKRKPDLFLCERLDVKAVFQCAVLALKFPEAPTVKASCGFFTELLPRCGEVESVGKVVQEDGRMLLIAVLEAIGGQASRSLMDCFADILFALNKHCFSLLSMWIKEALQPPGFPSARLSPEQKDTFSQQILRERVNKRRVKEMVKEFTLLCRGLHGTDYTADY
notes: Importin-13 (IPO13); PCR generated IPO13 insert put into pDsRed2-C1 at EcoRI and SmaI; also called dsRed2-IPO13; DSRED-tagged IPO13; source: HeLa, transfected (pDsRed2-fused IPO13), in lysate
